Measured values as given in patent publication US6558660B2, “Method for regulating IL-10 with IL-9, and applications thereof” (Ludwig Institute for Cancer Research, priority 2000, dated 2003).

How the values were obtained:
[1] = test system: P. aeruginosa (serotype 10); conditions: cited from earlier work
[2] = test system: P. aeruginosa (serotype 10); assay: live sepsis model, survival after lethal P. aeruginosa challenge; format: in vivo, mice
Protocol: This model was used in these experiments. To elaborate, hybrid mice (BALB/c Cr×DBA/2Cr) F1 (CD2 F1) of both sexes, ranging in age from 2-4 months were used. Mice were injected, intravenously, with 10^10 cells of P. aeruginosa (serotype 10), as described by, e.g., Campanile, et al, Cell. Immunol. 128:250 (1990); Campanile, et al, Cell. Immunol. 147:341 (1993); Campanile, et al, Eur. J. Pharmacol. 307:191 (1996). The microorganism was cultured in tryptic soy broth using standard conditions, and incubated at 37° C. for 18-24 hours under constant aeration. After the overnight culturing, the microorganisms were centrifuged, forming a soft pellet which was then resuspended in phosphate buffered saline. The dose of microorganisms referred to supra was then administered. This inoculum size is known to be lethal in more than 90% of test animal populations.
The interleukins and PBS were all administered intraperitoneally. Pentoxifylline was also administered intraperitoneally.
The experiments described supra were repeated, using a variety of doses, and both prophylactic and post-challenge administration.
To test this, mice received pentoxifylline at a dose of 30 mg/kg of body weight 1 hour before challenge with bacteria. The animals received a dose of murine IL-9 (4 μg) three hours post infection.

[3] = LPS challenge (LD90), survival; format: in vivo, mice; conditions: 850 μg LPS i.p.; IL-9 24 and 1 hour prior to challenge
Protocol: (§1) In these experiments, mice were injected, intraperitoneally, with 850 μg of LPS, which had been determined previously to constitute an LD90. All animals received doses of IL-9 as described supra, 24 and 1 hour prior to challenge. Sera were analyzed 2, 4, 6, 8, and 24 hours following challenge, using either a standard bioassay for TNF-α (cytotoxicity to TNF-α sensitive WEH1 164 cells), or via an immunossay (IL-12p40 and IFN-γ).

[4] = test system: TNF-α; assay: serum TNF-α bioassay (cytotoxicity to WEH1 164 cells) after P. aeruginosa challenge; format: in vivo; conditions: P. aeruginosa treated mice; IL-9 24 and 1 hour prior to challenge
From the text: (§2) It has been observed, previously, that there is a strong association between development of fatal septic shock and production of TNF-α. See, e.g., the Campanile papers, cited supra. In addition, IL-12 and IFN-γ are pro-inflammatory cytokines thought to have a pathogenetic role in both septic shock and endotoxemia. See D'Andrea, et al, J. Exp. Med. 178:1041 (1993). Murphy, et al, J. Exp. Med. 180:223 (1994); Kubin, et al, J. Exp. Med. 180:211 (1994). In view of the results secured in examples 1 & 2, studies were undertaken to measure serum levels of TNF-α, IL-12 p40, and IFN-γ, in subject animals challenged with P. aeruginosa in the manner described supra, or lipopolysaccharide antigen (“LPS” hereafter), that were also treated with IL-9.
as §1

[5] = test system: TNF-α; assay: serum TNF-α bioassay (cytotoxicity to WEH1 164 cells) after LPS challenge; format: in vivo, mice; conditions: LPS challenged animals (850 μg i.p.); IL-9 24 and 1 hour prior to challenge
From the text: as §2, §1

[6] = test system: TNF-α, IL-12 p40, and IFN-γ; assay: serum levels of TNF-α, IL-12 p40 and IFN-γ after challenge (bioassay / immunoassay); format: in vivo, mice; conditions: IL-9 24 and 1 hour prior to challenge (P. aeruginosa or LPS); 2, 4 and 6 hours after challenge
From the text: as §2, §1

[7] = test system: IL-4; assay: serum IL-4 by ELISA after challenge; format: in vivo, mice; conditions: IL-9 24 and 1 hour prior to challenge with bacteria or LPS; 2-24 hours after challenge
Protocol: (§3) In view of the observations of Giampetri, et al, supra, serum levels of the anti-inflammatory cytokines IL-4 and IL- 10 were measured in the sera of mice that had been challenged, either with the whole bacteria or with LPS, as described supra, and had received IL-9 24 and 1 hour prior to challenge, as described supra. Levels were measured via ELISAs, 2, 4, 6, 8, and 24 hours after challenge.

[8] = test system: IL-10; assay: serum IL-10 by ELISA after P. aeruginosa challenge; format: in vivo, mice; conditions: 2 hours following Pseudomonas infection; IL-9 24 and 1 hour prior to challenge
Protocol: as §3

[9] = test system: IL-10; assay: serum IL-10 by ELISA after LPS challenge; format: in vivo; conditions: LPS challenged mice; IL-9 24 and 1 hour prior to challenge
Protocol: as §3

[10] = test system: IL-10; assay: PCR of IL-10 transcripts in spleen cells of challenged mice; format: in vivo; conditions: after infection, animals which had received IL-9; control mice hardly detectable
Protocol: The experiments described herein report analyses of expression of IL-10. Specifically, total RNA was isolated from spleen cells of challenged mice at different points in time (0.5, 1, 2, 4, and 8 hours). Isolation was carried out in accordance with Campanile, et al, Eur. J. Pharmacol. 307:191 (1996), and Houssiau, et al, J. Immunol. 154:2624 (1995), incorporated by reference. These references also describe the PCR protocols used for amplifying transcripts of β-actin (control), and IL-10. Commercially available primers were used to amplify β actin, and the 5′ and 3′ primers for IL-10 were, respectively: […]
The amplification product for β actin should be 540 base pairs in length, and that of IL-10, 256 base pairs. Products were analyzed via 1.5% agarose gel electrophoresis, and visualized by ethidium bromide staining.

Molecule: CC(=O)CCCCn1c(=O)c2c(ncn2C)n(C)c1=O [Pentoxifylline, reference compound]
- protection in experimental sepsis ([1]; phosphodiesterase inhibitor, literature statement): confers protection

B1: IL-9: recombinant murine IL-9 produced in a baculovirus model in accordance with Druez, et al (protein, UniProt P15247 19-144, looked up)
Interleukin-9: QRCSTTWGIRDTNYLIENLKDDPPSKCSCSGNVTSCLCLSVPTDDCTTPCYREGLLQLTNATQKSRLLPVFHRVKRIVEVLKNITCPSFSCEKPCNQTMAGNTLSFLKSLLGTFQKTEMQRQKSRP
- survival rate ([2]; IL-9 i.p. prior to P. aeruginosa challenge, pooled independent experiments): about 80%
- cure rate ([2]; single 4 μg dose 24 hours before bacterial challenge, no second dose): 50%
- benefit (survival) ([2]; single treatment of 4 μg near the time of infection, and as much as 3 hours post challenge): marginal benefit
- outcome (survival) of LPS challenged mice [3]: death in the majority of the animals tested
- drop in TNF-α levels [4]: 10 fold
- drop in TNF-α levels [5]: better than a twofold drop
- expression of the cytokines (TNF-α, IL-12 p40, IFN-γ) in serum [6]: drastic reduction in all three cytokines
- effect on IL-4 production (serum level) [7]: did not appear to have any effect
- increase of IL-10 levels (serum) [8]: striking
- increase of IL-10 levels (serum) [9]: The same effect, albeit a lesser one
- IL-10 specific transcripts in spleen [10]: extensive expression

B2: IL-4: IL-4 (3 μg/mouse), together with 30 μg of anti-IL-4 monoclonal antibodies; composition improving bioavailability of IL-4 (protein, UniProt P07750 21-140, looked up)
Interleukin-4: HIHGCDKNHLREIIGILNEVTGEGTPCTEMDVPNVLTATKNTTESELVCRASKVLRIFYLKHGKTPCLKKNSSVLMELQRLFRAFRCLDSSISCTMNESKSTSLKDFLESLKSIMQMDYS
modifications: complexed with anti-IL-4 antibody
- protection against fatal sepsis ([1]; IL-4 3 μg/mouse together with 30 μg anti-IL-4 monoclonal antibodies, i.p., before P. aeruginosa challenge): 100%
